Data as given in patent US20110165265A1, “TRAIL VARIANTS FOR TREATING CANCER” (FUNDACIÓ GENÒMICA (CRG), priority 2007, published 2011).

Biological target: death receptor 5 (DR5) on the cell surface (human) (UniProt O14763)
Assay: cell-based or functional assay

## wild-type TRAIL (recombinant human soluble TRAIL, amino acids 114-281) (from UniProt P50591 114-281) (ligand)
  TRAIL-mediated death of Colo205 cells in the presence of neutralizing anti-DR5 antibody: 3 fold
  incubation time of Colo205 cells with 30 ng/ml ligand needed for a comparable level of pro-caspase-8 processing (Western blot): 60 min
